Numbering of substitutions follows the chain as printed. Names and notes keep the numbering of the source.
T1: human B7H4 expressed on CHO cells (human, UniProt Q7Z7D3 25-282)
T1 construct: whole, on cells; also called VCTN1
T1 sequence (looked up): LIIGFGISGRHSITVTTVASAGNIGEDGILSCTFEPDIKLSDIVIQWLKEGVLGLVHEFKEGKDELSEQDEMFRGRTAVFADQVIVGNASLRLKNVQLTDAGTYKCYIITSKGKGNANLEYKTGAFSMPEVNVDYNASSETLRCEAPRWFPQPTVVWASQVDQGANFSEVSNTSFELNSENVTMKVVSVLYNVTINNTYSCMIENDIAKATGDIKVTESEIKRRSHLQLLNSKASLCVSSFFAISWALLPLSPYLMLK

B1: Ly479 (bispecific antibody, human IgG1, kappa)
heavy: EVQLVESGGDLVKPGGSLKLSCAASGFTFSSYGMSWVRQTPDKRLEWVAAISTGGSYTYYPDSVKGRFTISRDTATNTLYLQMSTLKSEDTAMYYCTRRGATGSWFAYWGQGTLVTVSAASTKGPSVFPLAPSSKSTSGGTAALGCLVKDYFPEPVTVSWNSGALTSGVHTFPAVLQSSGLYSLSSVVTVPSSSLGTQTYICNVNHKPSNTKVDKKVEPKSCDKTHTCPPCPAPELLGPSVFLFPPKPKDTLMISRTPEVTCVVVDVSHEDPEVKFNWYVDGVEVHNAKTKPREEQYNSTYRVVSVLTVLHQDWLNGKEYKCKVSNKALPAPIEKTISKAKGQPREPQVYTLPPSREEMTKNQVSLTCLVKGFYPSDIAVEWESNGQPENNYKTTPPVLDSDGSFFLYSKLTVDKSRWQQGNVFSCSVMHEALHNHYTQKSLSLSPGGGGGSGGGGSGGGGSGGGGSEVQLVESGGGLVQPGGSLRLSCAASGFTFTNYGLHWVRQAPGKGLEWVSSISPSGGVTYYRDSVKGRFTISRDNSKNTLYLQMNSLRAEDTAVYYCAKPFLGWGGANWIAHWGQGTLVTVSSGGGGSGGGGSGGGGSGGGGSDIQMTQSPSSLSASVGDRVTITCLASEDISNDLAWYQQKPGKAPKLLIYFVDRLLDGVPSRFSGSGSGTDFTLTISSLQPEDFATYYCQQSYKYPPTFGQGTKLEIK
light: DILMTQSPSSMSVSLGDTVSITCHASQGINNNIGWLQRKPGKSFKGLIYHGTNLEDGVPSRFSGSGSGADYSLTISSLESEDFADYYCVQYVQFPRTFGGGTKLEIKRTVAAPSVFIFPPSDEQLKSGTASVVCLLNNFYPREAKVQWKVDNALQSGNSQESVTEQDSKDSTYSLSSTLTLSKADYEKHKVYACEVTHQGLSSPVTKSFNRGEC
notes: Ly361 HC-TM559 scFv VH-VL + Ly361 LC
B2: Ly482 (bispecific antibody, human IgG1, kappa)
heavy: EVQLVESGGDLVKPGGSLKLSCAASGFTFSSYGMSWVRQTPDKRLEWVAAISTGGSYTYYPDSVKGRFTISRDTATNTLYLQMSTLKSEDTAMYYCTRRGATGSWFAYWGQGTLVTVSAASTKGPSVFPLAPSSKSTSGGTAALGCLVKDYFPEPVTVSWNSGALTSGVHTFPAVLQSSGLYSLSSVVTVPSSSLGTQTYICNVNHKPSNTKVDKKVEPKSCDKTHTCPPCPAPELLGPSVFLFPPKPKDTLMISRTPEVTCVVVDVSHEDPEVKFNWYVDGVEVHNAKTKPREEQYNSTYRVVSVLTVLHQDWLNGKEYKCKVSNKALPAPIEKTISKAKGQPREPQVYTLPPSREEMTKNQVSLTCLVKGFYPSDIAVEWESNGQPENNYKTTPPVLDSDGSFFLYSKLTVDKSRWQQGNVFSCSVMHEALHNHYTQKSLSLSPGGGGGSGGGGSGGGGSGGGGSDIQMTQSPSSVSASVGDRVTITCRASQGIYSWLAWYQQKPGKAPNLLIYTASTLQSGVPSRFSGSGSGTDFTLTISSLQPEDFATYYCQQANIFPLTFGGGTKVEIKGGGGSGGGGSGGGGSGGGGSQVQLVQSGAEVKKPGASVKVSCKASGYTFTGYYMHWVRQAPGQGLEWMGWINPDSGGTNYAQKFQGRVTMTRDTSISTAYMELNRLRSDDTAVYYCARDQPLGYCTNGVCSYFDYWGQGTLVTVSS
light: B1 light
notes: Ly361 HC (IgG1 mutated Fc)-Ly253 scFv VL-VH + Ly361 LC
B3: Ly483 (bispecific antibody, human IgG1, kappa)
heavy: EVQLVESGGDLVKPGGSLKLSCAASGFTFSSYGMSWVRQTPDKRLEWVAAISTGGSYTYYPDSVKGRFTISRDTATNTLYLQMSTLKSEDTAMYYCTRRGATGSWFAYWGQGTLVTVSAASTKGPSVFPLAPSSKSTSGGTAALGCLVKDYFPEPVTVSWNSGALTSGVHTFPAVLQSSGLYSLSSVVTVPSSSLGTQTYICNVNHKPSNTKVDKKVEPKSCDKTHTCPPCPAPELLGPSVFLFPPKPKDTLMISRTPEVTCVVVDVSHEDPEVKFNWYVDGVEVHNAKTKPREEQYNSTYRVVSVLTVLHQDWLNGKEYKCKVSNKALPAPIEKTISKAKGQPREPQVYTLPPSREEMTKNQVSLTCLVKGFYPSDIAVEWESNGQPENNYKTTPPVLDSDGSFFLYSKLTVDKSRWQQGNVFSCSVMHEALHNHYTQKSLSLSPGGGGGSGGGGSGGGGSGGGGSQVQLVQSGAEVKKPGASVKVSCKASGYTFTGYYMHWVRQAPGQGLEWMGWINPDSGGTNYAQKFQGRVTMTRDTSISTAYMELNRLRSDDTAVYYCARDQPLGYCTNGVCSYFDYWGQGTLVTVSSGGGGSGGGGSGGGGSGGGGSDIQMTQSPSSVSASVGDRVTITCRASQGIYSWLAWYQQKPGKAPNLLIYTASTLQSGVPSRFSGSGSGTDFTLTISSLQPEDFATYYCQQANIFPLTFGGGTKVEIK
light: B1 light
notes: Ly361 HC (IgG1 mutated Fc)-Ly253 scFv VH-VL + Ly361 LC
B4: Ly487 (bispecific antibody, human IgG1, kappa)
heavy: EVQLVESGGGLVKPGGSLKLSCAASGFTFSDSGMHWVRQAPEKGLEWITYINSGSSTIYYADSVKGRFTISRDNAKNTLFLQMTSLRSEDTAMYYCARGRGYAMDYWGQGTSVTVSSASTKGPSVFPLAPSSKSTSGGTAALGCLVKDYFPEPVTVSWNSGALTSGVHTFPAVLQSSGLYSLSSVVTVPSSSLGTQTYICNVNHKPSNTKVDKKVEPKSCDKTHTCPPCPAPELLGPSVFLFPPKPKDTLMISRTPEVTCVVVDVSHEDPEVKFNWYVDGVEVHNAKTKPREEQYNSTYRVVSVLTVLHQDWLNGKEYKCKVSNKALPAPIEKTISKAKGQPREPQVYTLPPSREEMTKNQVSLTCLVKGFYPSDIAVEWESNGQPENNYKTTPPVLDSDGSFFLYSKLTVDKSRWQQGNVFSCSVMHEALHNHYTQKSLSLSPGGGGGSGGGGSGGGGSGGGGSQVQLVESGGGLVQPGGSLKLSCATSGFNFNDYFMNWVRQASGKGLEWVGQIRNKNYNYATYYTESLEGRVTISRDDSKNTAYLQMNSLKTEDTAVYYCTSYYYDGFADYFDYWGQGTTVTVSSGGGGSGGGGSGGGGSGGGGSDIQMTQSPSSLSASVGDRVTITCKASQNIYIYLNWYQQKPGKAPKLLIYNTNNLQTGVPSRFSGSGSGTDFTLTISSLQPEDFATYYCLQHSSRRTFGGGTKVEIK
light: EIVLTQSPTTMAASPGEKITIFCSASSSISSDFLHWYQQKPGFSPKLLIYRISNLASGVPARFSGSGSGTSYSLTIGTMEAEDVATYYCQQGSNVPRTFGGGTKLEIKRTVAAPSVFIFPPSDEQLKSGTASVVCLLNNFYPREAKVQWKVDNALQSGNSQESVTEQDSKDSTYSLSSTLTLSKADYEKHKVYACEVTHQGLSSPVTKSFNRGEC
notes: Ly366 HC (IgG1 mutated Fc)-TM740 scFv VH-VL + Ly366 LC
B5: Ly494 (bispecific antibody, human IgG1, kappa)
heavy: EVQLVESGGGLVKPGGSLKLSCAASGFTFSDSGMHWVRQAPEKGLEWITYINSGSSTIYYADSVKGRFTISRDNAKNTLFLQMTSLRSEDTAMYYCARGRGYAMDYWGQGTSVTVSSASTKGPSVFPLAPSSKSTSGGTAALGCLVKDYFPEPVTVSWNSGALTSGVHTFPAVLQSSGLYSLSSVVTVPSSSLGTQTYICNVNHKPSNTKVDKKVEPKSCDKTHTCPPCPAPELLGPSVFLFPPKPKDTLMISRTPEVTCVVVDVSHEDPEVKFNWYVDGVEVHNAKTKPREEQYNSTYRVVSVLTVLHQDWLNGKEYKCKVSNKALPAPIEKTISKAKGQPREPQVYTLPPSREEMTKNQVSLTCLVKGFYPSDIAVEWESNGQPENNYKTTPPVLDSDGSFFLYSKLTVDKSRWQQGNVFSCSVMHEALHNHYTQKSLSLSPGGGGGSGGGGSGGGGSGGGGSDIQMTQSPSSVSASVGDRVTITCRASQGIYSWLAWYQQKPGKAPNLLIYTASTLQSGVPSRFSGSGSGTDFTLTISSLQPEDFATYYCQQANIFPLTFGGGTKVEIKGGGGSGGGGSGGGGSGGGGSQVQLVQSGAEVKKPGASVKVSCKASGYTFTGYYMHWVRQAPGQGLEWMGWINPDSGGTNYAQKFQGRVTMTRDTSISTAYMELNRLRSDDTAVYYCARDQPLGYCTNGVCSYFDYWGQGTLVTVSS
light: B4 light
notes: Ly366 HC (IgG1 mutated Fc)-Ly253 scFv VL-VH + Ly366 LC
B6: Ly490 (bispecific antibody, human IgG1, kappa)
heavy: EVQLVESGGGLVKPGGSLKLSCAASGFTFSDSGMHWVRQAPEKGLEWITYINSGSSTIYYADSVKGRFTISRDNAKNTLFLQMTSLRSEDTAMYYCARGRGYAMDYWGQGTSVTVSSASTKGPSVFPLAPSSKSTSGGTAALGCLVKDYFPEPVTVSWNSGALTSGVHTFPAVLQSSGLYSLSSVVTVPSSSLGTQTYICNVNHKPSNTKVDKKVEPKSCDKTHTCPPCPAPELLGPSVFLFPPKPKDTLMISRTPEVTCVVVDVSHEDPEVKFNWYVDGVEVHNAKTKPREEQYNSTYRVVSVLTVLHQDWLNGKEYKCKVSNKALPAPIEKTISKAKGQPREPQVYTLPPSREEMTKNQVSLTCLVKGFYPSDIAVEWESNGQPENNYKTTPPVLDSDGSFFLYSKLTVDKSRWQQGNVFSCSVMHEALHNHYTQKSLSLSPGGGGGSGGGGSGGGGSGGGGSDIQMTQSPSSLSASVGDRVTITCLASEDISNDLAWYQQKPGKAPKLLIYFVDRLLDGVPSRFSGSGSGTDFTLTISSLQPEDFATYYCQQSYKYPPTFGQGTKLEIKGGGGSGGGGSGGGGSGGGGSEVQLVESGGGLVQPGGSLRLSCAASGFTFTNYGLHWVRQAPGKGLEWVSSISPSGGVTYYRDSVKGRFTISRDNSKNTLYLQMNSLRAEDTAVYYCAKPFLGWGGANWIAHWGQGTLVTVSS
light: B4 light
notes: Ly366 HC (IgG1 mutated Fc)-TM559 scFv VL-VH + Ly366 LC
B7: Ly491 (bispecific antibody, human IgG1, kappa)
heavy: EVQLVESGGGLVKPGGSLKLSCAASGFTFSDSGMHWVRQAPEKGLEWITYINSGSSTIYYADSVKGRFTISRDNAKNTLFLQMTSLRSEDTAMYYCARGRGYAMDYWGQGTSVTVSSASTKGPSVFPLAPSSKSTSGGTAALGCLVKDYFPEPVTVSWNSGALTSGVHTFPAVLQSSGLYSLSSVVTVPSSSLGTQTYICNVNHKPSNTKVDKKVEPKSCDKTHTCPPCPAPELLGPSVFLFPPKPKDTLMISRTPEVTCVVVDVSHEDPEVKFNWYVDGVEVHNAKTKPREEQYNSTYRVVSVLTVLHQDWLNGKEYKCKVSNKALPAPIEKTISKAKGQPREPQVYTLPPSREEMTKNQVSLTCLVKGFYPSDIAVEWESNGQPENNYKTTPPVLDSDGSFFLYSKLTVDKSRWQQGNVFSCSVMHEALHNHYTQKSLSLSPGGGGGSGGGGSGGGGSGGGGSEVQLVESGGGLVQPGGSLRLSCAASGFTFTNYGLHWVRQAPGKGLEWVSSISPSGGVTYYRDSVKGRFTISRDNSKNTLYLQMNSLRAEDTAVYYCAKPFLGWGGANWIAHWGQGTLVTVSSGGGGSGGGGSGGGGSGGGGSDIQMTQSPSSLSASVGDRVTITCLASEDISNDLAWYQQKPGKAPKLLIYFVDRLLDGVPSRFSGSGSGTDFTLTISSLQPEDFATYYCQQSYKYPPTFGQGTKLEIK
light: B4 light
notes: Ly366 HC (IgG1 mutated Fc)-TM559 scFv VH-VL + Ly366 LC
B8: Ly495 (bispecific antibody, human IgG1, kappa)
heavy: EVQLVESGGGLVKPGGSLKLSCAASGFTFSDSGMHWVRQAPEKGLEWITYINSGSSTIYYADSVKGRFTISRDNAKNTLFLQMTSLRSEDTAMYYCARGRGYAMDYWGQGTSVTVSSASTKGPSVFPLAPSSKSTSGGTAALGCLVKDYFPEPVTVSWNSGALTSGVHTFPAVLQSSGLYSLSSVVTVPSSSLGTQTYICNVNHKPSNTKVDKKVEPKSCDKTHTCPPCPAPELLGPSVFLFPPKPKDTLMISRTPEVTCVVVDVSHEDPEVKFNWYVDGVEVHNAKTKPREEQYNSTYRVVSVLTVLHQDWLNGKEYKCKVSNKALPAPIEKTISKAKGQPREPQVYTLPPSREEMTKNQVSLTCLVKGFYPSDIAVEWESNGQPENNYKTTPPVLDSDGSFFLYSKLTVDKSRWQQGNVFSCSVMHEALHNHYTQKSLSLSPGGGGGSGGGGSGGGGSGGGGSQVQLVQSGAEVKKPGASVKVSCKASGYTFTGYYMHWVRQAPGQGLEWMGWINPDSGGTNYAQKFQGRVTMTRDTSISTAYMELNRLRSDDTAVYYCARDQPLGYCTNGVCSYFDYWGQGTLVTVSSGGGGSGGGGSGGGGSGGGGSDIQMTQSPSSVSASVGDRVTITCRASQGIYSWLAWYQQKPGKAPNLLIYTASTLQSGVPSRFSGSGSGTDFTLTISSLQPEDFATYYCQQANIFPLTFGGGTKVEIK
light: B4 light
notes: Ly366 HC (IgG1 mutated Fc)-Ly253 scFv VH-VL + Ly366 LC
B9: Ly075 (antibody, human IgG1, kappa, V domains shown)
VH: QVQLVQSGAEVKKPGASVKVSCKASGYTFTDFWMSWVRQAPGQGLEWMGQIYPNTGTTHSNEKFKGRVTMTRDTSTSTVYMELSSLRSEDTAVYYCARSYHISTTPNWFAYWGQGTLVTVSS
VL: DIQMTQSPSSLSASVGDRVTITCKASQNVYKKLEWYQQKPGKVPKLLIYHTNILQTGVPSRFSGSGSGTDFTLTISSLQPEDVATYYCYQWNSGPTFGGGTKVEIKR
notes: humanized LYV5574, VH-1 and VL-1, human IgG1/kappa
B10: Ly076 (antibody, human IgG1, kappa, V domains shown)
VH: B9 VH
VL: B9 VL with L46V, F71Y
notes: humanized LYV5574, VH-1 and VL-2 (L42V, F71Y), human IgG1/kappa

target: T2, Human CD40 ECD protein (mouse IgG2a Fc tag) (human, UniProt P25942 21-193); assay: bridging ELISA, coated B7H4, soluble CD40 ECD-mFc
T2 construct: extracellular domain; also called Human CD40-msFc; human recombinant CD40; not shown: mouse IgG2a Fc tag
Method: Anti-B7H4/CD40 bi-specific antibodies were analyzed by ELISA for their simultaneous binding to recombinant human B7H4 and human CD40. Briefly, human B7H4 protein was diluted and coated onto an ELISA plate with a volume of […] by incubation at 4° C. overnight. The next day, the plate was blocked by PBST-BSA buffer, then serially diluted samples of anti-B7H4/CD40 bi-specific antibodies were pipetted into appropriate wells at 50 μL/well, and the plate was incubated for 1 h followed by Washing. Human CD40 ECD protein (mouse IgG2a Fc tag) was added into the plate at 50 μL/well. After 1-hour incubation at room temperature, HRP-conjugated anti-mouse IgG (H+L) antibody was added into the plate at 100 μL/well. The plate was incubated for 1 hour at room temperature followed by washing. TMB substrate solution was added at 100 μL/well and the color development was stopped by adding 100 uL/well Stop Solution (2N H2SO4). Absorbance at 450 nm and 620 nm was read by Tecan F200 Pro plate reader. GraphPad 7.0, “[Agonist] vs. response—Variable slope (four parameters)” was used to plot the binding data and calculate binding EC50 values.

T2 sequence (P25942 21-193): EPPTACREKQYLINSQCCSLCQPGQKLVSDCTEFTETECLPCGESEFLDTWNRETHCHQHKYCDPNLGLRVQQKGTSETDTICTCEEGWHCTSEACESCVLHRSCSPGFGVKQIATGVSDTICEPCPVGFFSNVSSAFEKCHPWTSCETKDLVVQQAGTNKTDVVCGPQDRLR

Binding result, binds:
B1
B2
B3
B4
B5
B6
B7
B8

target: T3, human PD-L1 expressed on CHO cells (human, UniProt Q9NZQ7 19-290); assay: FACS, CHO cells
T3 construct: whole, on cells; also used for human PD-L1 on Raji cells in the reporter assay; also called cell surface PD-L1; Raji-PD-L1 cells
T3 sequence (Q9NZQ7 19-290): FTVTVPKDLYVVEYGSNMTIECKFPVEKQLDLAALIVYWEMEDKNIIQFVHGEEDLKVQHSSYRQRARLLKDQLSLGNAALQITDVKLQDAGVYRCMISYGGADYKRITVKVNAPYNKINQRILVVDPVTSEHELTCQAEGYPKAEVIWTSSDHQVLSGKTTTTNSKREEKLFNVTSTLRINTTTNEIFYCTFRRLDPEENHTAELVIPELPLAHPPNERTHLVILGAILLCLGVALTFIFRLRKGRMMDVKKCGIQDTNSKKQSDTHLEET

Binding result, binds:
B9
B10

target: T4, human CD40 expressed on CHO cells (human, UniProt P25942 21-277); assay: FACS, CHO cells
T4 construct: whole, on cells; also used for the reporter cells over-expressing human CD40; also called cellular CD40; CHO-CD40 cells
T4 sequence (P25942 21-277): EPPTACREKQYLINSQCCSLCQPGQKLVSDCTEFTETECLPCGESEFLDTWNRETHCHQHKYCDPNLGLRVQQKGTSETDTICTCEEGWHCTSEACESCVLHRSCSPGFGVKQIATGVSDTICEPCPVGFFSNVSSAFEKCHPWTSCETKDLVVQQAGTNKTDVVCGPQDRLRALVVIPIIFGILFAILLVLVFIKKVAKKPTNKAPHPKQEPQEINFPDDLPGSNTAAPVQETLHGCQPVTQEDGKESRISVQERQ

Binding result, binds:
B1
B2
B3
B4
B5
B6
B7
B8

target: T1, human B7H4 expressed on CHO cells; assay: FACS, CHO cells

Binding result, binds:
B1
B2
B3
B4
B5
B6
B7
B8
